Patent US9238830

Columns and labels:
[1] = system: N. meningitidis MC58 pilin (PilE, expression product of pilE, Accession No. AAF40497)
[2] = system: PilE N61A variant of N. meningitidis MC58 pilin (pPilEN61A)
[3] = system: PilE T62A variant of N. meningitidis MC58 pilin (pPilET62A)
[4] = system: PilE S63A variant of N. meningitidis MC58 pilin (pPilES63A)
[5] = system: PilE N60A variant of N. meningitidis MC58 pilin (pPilEN60A)

Substance: PglL oligosaccharyltransferase of N. meningitidis MC58 (Accession No. AAF41024), His10-tagged (pAMF5)
- glycosylation of pilin in E. coli CLM24 (western blot, band shift) [1]: an extra band of slower electrophoretic mobility was detected with both a monoclonal anti-pilin antiserum and the C. jejuni glycan-specific R12 antiserum
- transfer of O7 polysaccharide to PilE (western blot) [2]: mutation of N60, N61 and T62 do not affect glycosylation
- transfer of O7 polysaccharide to PilE (western blot) [3]: mutation of N60, N61 and T62 do not affect glycosylation
- transfer of O7 polysaccharide to PilE (western blot) [4]: mutation S63A completely abolishes transfer of the polysaccharide to PilE
- transfer of O7 polysaccharide to PilE (western blot) [5]: mutation of N60, N61 and T62 do not affect glycosylation
